Results taken from patent US10562936B2, “Ligands for integrin αvβ6, synthesis and uses thereof” (Technische Universitat Munchen, priority 2015, dated 2020).
Where two headings read alike, the source gives them in different places. Square brackets hold non-standard residues; d marks the D form. Side chains are listed from the residue outwards. Peptide text beside a SMILES is read from it. Abu = CC[C@H](N)C(=O)O; Cy5.5 = Cyanine-5.5; Ahx = NCCCCCC(=O)O; βAla = NCCC(=O)O

Assays:
[1] = molecular target: integrin α5β1 (soluble integrin) (UniProt P08648); assay: solid-phase binding assay, internal standard; coated fibronectin, soluble α5β1
αvβ3 = molecular target: T1, αvβ3 (Homo sapiens, UniProt P05106+P06756); assay: Solid-phase integrin binding assay, αvβ3 (coated Vitronectin); details: solid-phase binding assay, Vitronectin coated; read-out: αvβ3, IC50
T1 construct: using coated extracellular matrix proteins and soluble integrins
Procedure: (§1) The activity and selectivity of integrin ligands were determined by a solid-phase binding assay according to the previously reported protocols using coated extracellular matrix proteins and soluble integrins: Fibronectin (Fn) for α5β1, latent activating protein (LAP) for αvβ6 and αvβ8, Vitronectin (Vn) for αvβ3 and αvβ5, Fibrinogen (Fbg) for aIIbβ3.

αIIbβ3 = molecular target: T2, αIIbβ3 (Homo sapiens, UniProt P05106+P08514); assay: Solid-phase integrin binding assay, αIIbβ3 (coated Fibrinogen); details: solid-phase binding assay, Fibrinogen coated; read-out: αIIbβ3, IC50
T2 construct: using coated extracellular matrix proteins and soluble integrins
Procedure: as §1

αvβ6 [2] = molecular target: T3, αvβ6 (Homo sapiens, UniProt P06756+P18564); assay: Solid-phase integrin binding assay, αvβ6 (coated LAP, soluble integrin); set-up: using coated extracellular matrix proteins and soluble integrins
Procedure: as §1

αvβ5 = molecular target: T4, αvβ5 (Homo sapiens, UniProt P06756+P18084); assay: Solid-phase integrin binding assay, αvβ5 (coated Vitronectin); details: solid-phase binding assay, Vitronectin coated; read-out: αvβ5, IC50
T4 construct: using coated extracellular matrix proteins and soluble integrins
Procedure: as §1

[3] = system: human oral squamous cell carcinoma (OSCC) cell line HN (high integrin αvβ6); assay: Cell binding / fluorescence bioimaging of Cy5.5 conjugate on HN cells; assay type: cell-based
From the text: The human oral squamous cell carcinoma (OSCC) cell line HN were purchased from the German Collection of Microorganisms and Cell Cultures, Braunschweig, Germany (DSMZ no. ACC 417). HN cells derived from a cervical lymph node metastasis of a highly aggressive and invasive OSCC of the soft palate.^[9] As control cells, we used the human ovarian cancer cell line OVMZ6 with low integrin αvβ6 and high integrin αvβ3 expression.^[10] All cells were cultivated in Dulbecco's Modified Eagle's Medium (DMEM) (Sigma-Aldrich, St. Louis, Mo., USA), supplemented with 10% (v/v) fetal calf serum (FCS) (Gibco, LifeTechnologies™, Carlsbad, Calif., USA).
HN and OVMZ6 cells were cultivated for 24 h on fibronectin-coated microchamber slides at a density of 25×10^3/well, thereafter fixed in 2% (w/v) PFA for 15 min at r.t. and washed in PBS. The Cy5.5-conjugated compound 18-Cy5.5, dissolved in PBS, 5% (v/v) dimethyl sulfoxide (DMSO), was applied at a final concentration of […] for 1 h at r.t., followed by 3 washes in PBS. […] As control peptide served the non-binding cycl(R^betaADfK) labelled via lysine side-chain NH2 group with Cy5.5 fluorescent dye. After the incubation period, cells were washed 6 times in PBS and slides mounted. Fluorescence signal intensity was detected by the microscope Zeiss LSM 700 (Zeiss) as described above.

αvβ6 [4] = molecular target: T3, αvβ6; details: from WO 01/05810; cited from earlier work
[5] = molecular target: T5, integrin αvβ6 (soluble integrin) (UniProt P06756 31-992; P18564 22-707); assay: solid-phase binding assay, internal standard; coated LAP, soluble αvβ6
T5 construct: Only 'soluble integrins' is said

[6] = molecular target: T6, integrin αvβ8 (soluble integrin) (UniProt P06756 31-992; P26012 43-684); assay: solid-phase binding assay, internal standard; coated LAP, soluble αvβ8
T6 construct: Only 'soluble integrins' is said

[7] = molecular target: T7, integrin αvβ3 (soluble integrin) (UniProt P06756 31-992; P05106 27-718); assay: solid-phase binding assay, competition; coated vitronectin, soluble αvβ3
T7 construct: Only 'soluble integrins' is said

[8] = molecular target: T8, integrin α5β1 (soluble integrin) (UniProt P08648 42-995; P05556 21-728); assay: solid-phase binding assay, competition; coated fibronectin, soluble α5β1
T8 construct: Only 'soluble integrins' is said

[9] = molecular target: T7, integrin αvβ3 (soluble integrin); assay: solid-phase binding assay, competition; coated vitronectin, soluble αvβ3; remark: listed apart in the source
[10] = molecular target: T6, integrin αvβ8 (soluble integrin); assay: solid-phase binding assay, competition; coated LAP, soluble αvβ8
[11] = molecular target: T7, integrin αvβ3 (soluble integrin); assay: ratio of IC50s αvβ6:αvβ3, printed the other way round (6.1 for αvβ6 to 1 for αvβ3)
[12] = molecular target: T5, integrin αvβ6 (soluble integrin); assay: solid-phase binding assay, competition; coated LAP, soluble αvβ6

T2 sequence (P08514 32-1039): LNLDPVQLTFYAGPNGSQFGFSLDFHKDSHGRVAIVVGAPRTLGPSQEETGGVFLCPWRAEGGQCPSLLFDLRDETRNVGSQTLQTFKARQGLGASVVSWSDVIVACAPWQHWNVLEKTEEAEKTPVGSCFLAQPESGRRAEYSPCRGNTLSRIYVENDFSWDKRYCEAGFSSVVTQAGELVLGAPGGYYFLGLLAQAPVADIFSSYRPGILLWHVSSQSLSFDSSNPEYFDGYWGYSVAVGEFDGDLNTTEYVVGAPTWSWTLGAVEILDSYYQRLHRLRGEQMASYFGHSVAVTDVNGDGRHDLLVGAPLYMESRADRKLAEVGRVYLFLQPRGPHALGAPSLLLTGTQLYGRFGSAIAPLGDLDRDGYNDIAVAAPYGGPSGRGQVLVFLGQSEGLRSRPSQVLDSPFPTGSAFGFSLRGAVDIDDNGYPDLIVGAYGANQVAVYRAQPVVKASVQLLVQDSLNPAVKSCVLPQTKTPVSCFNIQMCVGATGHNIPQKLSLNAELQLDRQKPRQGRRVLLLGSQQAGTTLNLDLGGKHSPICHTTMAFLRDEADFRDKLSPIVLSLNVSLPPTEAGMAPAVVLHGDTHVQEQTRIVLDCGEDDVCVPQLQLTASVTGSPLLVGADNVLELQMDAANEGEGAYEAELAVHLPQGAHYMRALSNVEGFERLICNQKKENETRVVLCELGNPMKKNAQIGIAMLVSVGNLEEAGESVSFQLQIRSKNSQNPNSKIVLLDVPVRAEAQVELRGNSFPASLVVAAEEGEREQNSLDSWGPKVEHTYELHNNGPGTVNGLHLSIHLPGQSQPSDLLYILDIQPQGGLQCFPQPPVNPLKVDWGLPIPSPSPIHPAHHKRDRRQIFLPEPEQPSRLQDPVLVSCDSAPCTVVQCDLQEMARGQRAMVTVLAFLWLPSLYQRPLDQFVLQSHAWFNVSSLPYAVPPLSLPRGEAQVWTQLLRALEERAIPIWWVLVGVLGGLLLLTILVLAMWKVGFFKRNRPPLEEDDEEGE
T2 sequence (P05106 27-788): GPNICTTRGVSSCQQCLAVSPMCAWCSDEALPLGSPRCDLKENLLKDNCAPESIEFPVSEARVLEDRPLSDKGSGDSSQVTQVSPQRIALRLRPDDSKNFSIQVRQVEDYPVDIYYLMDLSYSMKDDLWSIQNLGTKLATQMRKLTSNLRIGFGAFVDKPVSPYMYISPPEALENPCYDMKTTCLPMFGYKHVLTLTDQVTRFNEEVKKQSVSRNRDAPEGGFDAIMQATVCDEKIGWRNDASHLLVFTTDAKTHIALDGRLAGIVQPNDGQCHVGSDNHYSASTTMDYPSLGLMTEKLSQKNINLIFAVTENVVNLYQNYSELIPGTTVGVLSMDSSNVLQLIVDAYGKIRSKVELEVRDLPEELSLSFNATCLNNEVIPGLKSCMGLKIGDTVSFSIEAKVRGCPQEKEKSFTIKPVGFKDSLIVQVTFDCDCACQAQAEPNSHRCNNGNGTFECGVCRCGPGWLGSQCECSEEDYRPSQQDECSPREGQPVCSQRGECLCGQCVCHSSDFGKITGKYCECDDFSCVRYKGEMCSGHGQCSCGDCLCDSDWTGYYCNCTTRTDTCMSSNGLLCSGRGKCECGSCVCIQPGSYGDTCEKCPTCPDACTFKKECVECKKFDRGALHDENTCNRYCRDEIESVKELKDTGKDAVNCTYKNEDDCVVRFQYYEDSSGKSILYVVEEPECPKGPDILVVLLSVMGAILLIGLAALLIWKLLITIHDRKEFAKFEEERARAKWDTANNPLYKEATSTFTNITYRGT
T8 sequence (P08648 42-995, chain 1 of 2): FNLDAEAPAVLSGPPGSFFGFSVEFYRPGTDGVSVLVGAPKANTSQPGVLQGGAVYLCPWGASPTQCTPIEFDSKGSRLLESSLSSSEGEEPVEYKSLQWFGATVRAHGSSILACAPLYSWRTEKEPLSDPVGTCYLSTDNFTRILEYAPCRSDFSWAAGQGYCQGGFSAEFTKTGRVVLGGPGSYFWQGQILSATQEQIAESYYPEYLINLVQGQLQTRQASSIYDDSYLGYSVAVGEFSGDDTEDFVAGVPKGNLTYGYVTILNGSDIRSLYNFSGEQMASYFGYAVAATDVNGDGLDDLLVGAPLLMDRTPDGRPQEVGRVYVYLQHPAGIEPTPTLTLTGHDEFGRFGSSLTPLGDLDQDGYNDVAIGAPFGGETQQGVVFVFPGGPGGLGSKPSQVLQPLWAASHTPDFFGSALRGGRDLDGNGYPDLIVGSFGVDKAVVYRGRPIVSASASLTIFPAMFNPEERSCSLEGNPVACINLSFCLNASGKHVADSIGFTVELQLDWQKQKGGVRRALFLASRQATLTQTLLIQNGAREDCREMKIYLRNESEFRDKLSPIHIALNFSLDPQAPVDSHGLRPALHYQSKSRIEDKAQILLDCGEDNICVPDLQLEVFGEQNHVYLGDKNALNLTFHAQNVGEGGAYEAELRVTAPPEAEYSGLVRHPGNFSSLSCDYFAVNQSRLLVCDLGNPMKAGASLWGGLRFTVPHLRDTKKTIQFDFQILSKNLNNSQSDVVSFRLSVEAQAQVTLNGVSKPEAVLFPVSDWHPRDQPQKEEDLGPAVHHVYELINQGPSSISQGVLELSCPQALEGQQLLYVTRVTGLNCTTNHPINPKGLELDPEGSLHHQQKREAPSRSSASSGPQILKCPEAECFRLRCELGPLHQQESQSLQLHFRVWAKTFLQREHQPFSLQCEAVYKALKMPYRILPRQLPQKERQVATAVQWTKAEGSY
T8 sequence (P05556 21-728, chain 2 of 2): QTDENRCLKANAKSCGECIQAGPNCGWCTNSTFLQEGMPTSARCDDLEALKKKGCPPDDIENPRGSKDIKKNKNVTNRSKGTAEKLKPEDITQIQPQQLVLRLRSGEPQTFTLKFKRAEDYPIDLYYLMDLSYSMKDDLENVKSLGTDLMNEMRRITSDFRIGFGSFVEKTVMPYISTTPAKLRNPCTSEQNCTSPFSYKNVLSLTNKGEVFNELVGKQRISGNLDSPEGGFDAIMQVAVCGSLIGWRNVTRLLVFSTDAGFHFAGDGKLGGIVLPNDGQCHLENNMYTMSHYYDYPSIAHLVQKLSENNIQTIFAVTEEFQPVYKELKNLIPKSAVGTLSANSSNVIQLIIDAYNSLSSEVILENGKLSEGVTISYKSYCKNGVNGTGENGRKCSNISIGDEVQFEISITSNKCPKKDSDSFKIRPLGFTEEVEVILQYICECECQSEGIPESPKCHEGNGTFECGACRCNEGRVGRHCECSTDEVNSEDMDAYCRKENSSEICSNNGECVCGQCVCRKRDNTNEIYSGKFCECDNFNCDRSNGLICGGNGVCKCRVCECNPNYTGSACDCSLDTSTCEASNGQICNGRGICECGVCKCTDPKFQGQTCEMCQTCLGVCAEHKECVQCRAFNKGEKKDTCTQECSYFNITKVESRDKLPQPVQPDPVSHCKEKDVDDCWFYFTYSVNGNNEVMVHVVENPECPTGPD
T6 sequence (P06756 31-992, chain 1 of 2): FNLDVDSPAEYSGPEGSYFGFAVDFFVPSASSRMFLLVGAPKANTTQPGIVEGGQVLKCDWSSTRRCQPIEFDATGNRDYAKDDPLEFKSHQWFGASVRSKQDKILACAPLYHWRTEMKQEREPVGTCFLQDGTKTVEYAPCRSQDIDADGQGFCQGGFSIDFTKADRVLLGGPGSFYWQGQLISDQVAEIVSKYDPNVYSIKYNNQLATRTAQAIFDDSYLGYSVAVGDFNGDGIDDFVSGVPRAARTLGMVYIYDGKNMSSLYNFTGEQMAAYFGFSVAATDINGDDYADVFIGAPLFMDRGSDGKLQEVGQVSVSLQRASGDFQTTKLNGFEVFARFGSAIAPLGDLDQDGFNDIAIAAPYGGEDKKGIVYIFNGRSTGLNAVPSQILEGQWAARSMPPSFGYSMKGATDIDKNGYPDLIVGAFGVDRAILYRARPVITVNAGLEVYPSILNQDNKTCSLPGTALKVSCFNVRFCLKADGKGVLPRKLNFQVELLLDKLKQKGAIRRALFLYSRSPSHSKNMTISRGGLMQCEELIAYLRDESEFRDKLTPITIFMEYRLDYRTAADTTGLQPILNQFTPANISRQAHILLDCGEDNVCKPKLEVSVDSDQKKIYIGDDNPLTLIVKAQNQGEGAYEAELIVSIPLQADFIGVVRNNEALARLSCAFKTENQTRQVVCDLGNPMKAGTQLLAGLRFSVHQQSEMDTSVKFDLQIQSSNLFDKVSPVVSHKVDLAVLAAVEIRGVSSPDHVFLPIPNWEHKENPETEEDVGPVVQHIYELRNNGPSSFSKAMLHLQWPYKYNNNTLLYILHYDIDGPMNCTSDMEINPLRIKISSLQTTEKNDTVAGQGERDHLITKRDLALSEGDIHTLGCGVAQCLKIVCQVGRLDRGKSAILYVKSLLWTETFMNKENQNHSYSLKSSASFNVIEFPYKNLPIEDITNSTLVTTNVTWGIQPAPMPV
T6 sequence (P26012 43-684, chain 2 of 2): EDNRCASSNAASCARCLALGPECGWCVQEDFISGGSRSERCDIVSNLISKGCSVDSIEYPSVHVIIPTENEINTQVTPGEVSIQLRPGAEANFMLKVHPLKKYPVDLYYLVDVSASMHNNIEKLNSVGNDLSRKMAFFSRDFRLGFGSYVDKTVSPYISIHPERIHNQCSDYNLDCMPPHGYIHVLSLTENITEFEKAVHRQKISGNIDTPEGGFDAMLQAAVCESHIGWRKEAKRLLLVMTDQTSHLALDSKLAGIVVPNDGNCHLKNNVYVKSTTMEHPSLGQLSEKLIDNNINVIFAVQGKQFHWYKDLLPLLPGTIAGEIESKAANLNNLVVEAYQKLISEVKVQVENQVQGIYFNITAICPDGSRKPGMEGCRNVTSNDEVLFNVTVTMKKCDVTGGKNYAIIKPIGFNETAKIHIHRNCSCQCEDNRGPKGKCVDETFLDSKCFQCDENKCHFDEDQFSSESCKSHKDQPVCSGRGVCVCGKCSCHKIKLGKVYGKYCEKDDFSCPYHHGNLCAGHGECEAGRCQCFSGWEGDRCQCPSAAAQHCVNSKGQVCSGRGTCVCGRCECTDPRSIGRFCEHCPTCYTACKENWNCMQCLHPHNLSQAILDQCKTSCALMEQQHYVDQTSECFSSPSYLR

Cilengitide, c(-RGDf(NMe)V-) (peptide)
IC50 [1]: 1 to 8 nM

CC(C)C[C@@H]1NC(=O)[C@H](CC(=O)O)NC(=O)CNC(=O)[C@H](CCCNC(=N)N)NC(=O)[C@H](C)NC(=O)[C@@H]2CCCN2C(=O)[C@H]2CCCN2C(=O)[C@H](CCCCN)NC(=O)[C@H](C)NC1=O [Compound 11, A R G D L A K p P] (cyclo(ARGDLAK[dP]P))
IC50 (αvβ3): 302 nM | IC50 (αIIbβ3): > 1000 nM | IC50 (αvβ6 [2]): 1.51 nM | IC50 (αvβ5): > 1000 nM

cycl(R^betaADfK)-ahx-Cy5.5 (cyclo(R[βAla]D[dF]K([Ahx-Cy5.5]))) [reference compound]
fluorescence signal intensity on cells ([3]; fixed HN cells, conjugate 10 M, 1 h at r.t.): did not result in fluorescence signal intensity

CC(C)C[C@@H]1NC(=O)[C@H](CC(=O)O)NC(=O)CNC(=O)[C@H](CCCNC(=N)N)NC(=O)[C@H](C)NC(=O)[C@@H]2CCCN2C(=O)[C@H]2CCCN2C(=O)[C@H](CC(C)C)NC(=O)[C@H](C)NC1=O [Compound 4, A R G D L A L p P] (cyclo(ARGDLAL[dP]P))
IC50 (αvβ3): 106 nM | IC50 (αIIbβ3): > 1000 nM | IC50 (αvβ6 [2]): 3 nM | IC50 (αvβ5): > 1000 nM

CC(=O)NCCCC[C@H]1C(=O)N[C@@H](Cc2ccccc2)C(=O)N[C@@H](CCCNC(=N)N)C(=O)NCC(=O)N[C@@H](CC(=O)O)C(=O)N[C@@H](CC(C)C)C(=O)N[C@@H](C)C(=O)N[C@@H](Cc2ccccc2)C(=O)N2CCC[C@@H]2C(=O)N1C [Compound 23, F R G D L A F p (NMe)K^[f]]
IC50 (αvβ3): 640 nM | IC50 (αIIbβ3): > 1000 nM | IC50 (αvβ6 [2]): 0.3 nM | IC50 (αvβ5): > 1000 nM

CC(C)C[C@@H]1NC(=O)[C@H](CC(=O)O)NC(=O)CNC(=O)[C@H](CCCNC(=N)N)NC(=O)[C@H](Cc2ccccc2)NC(=O)[C@H](CCCCN)N(C)C(=O)[C@H]2CCCN2C(=O)[C@H](Cc2ccccc2)NC(=O)[C@H](C)NC1=O [Compound 18, F R G D L A F p (NMe)K]
binding competition: fluorescence signal intensity of 18-Cy5.5 after pre-incubation ([3]; 10-fold molar excess of unlabeled analogue for 1 h at r.t. prior to 18-Cy5.5): strong reduction in fluorescence signal intensity

cyclo(RTDLdALR-Abu-Abu) (cyclo(RTDL[dD]ALR[Abu][Abu]); SMILES CC[C@@H]1NC(=O)[C@H](CCCNC(=N)N)NC(=O)[C@H](CC(C)C)NC(=O)[C@H](C)NC(=O)[C@@H](CC(=O)O)NC(=O)[C@H](CC(C)C)NC(=O)[C@H](CC(=O)O)NC(=O)[C@H]([C@@H](C)O)NC(=O)[C@H](CCCNC(=N)N)NC(=O)[C@H](CC)NC1=O)
IC50 (αvβ6 [4]): ~1 nM

B1: linear peptide RTDLDSLRT (peptide)
peptide: RTDLDSLRT
notes: also called control peptide (plasma stability)
IC50 [5]: 6 to 33 nM | IC50 [6]: 8 to 100 nM

B2: Compound 1, cyclic peptide A R G D L A A L p P (peptide)
peptide: cyclo(ARGDLAAL[dP]P)
notes: Comparative compound (*); also called Cpd
IC50 [7]: 76.7 nM | IC50 [8]: 454 nM | IC50 [9]: 76.7 nM | IC50 [10]: 115 nM

B3: Compound 4, cyclic peptide A R G D L A L p P (peptide)
peptide: cyclo(ARGDLAL[dP]P)
SMILES: CC(C)C[C@@H]1NC(=O)[C@H](CC(=O)O)NC(=O)CNC(=O)[C@H](CCCNC(=N)N)NC(=O)[C@H](C)NC(=O)[C@@H]2CCCN2C(=O)[C@H]2CCCN2C(=O)[C@H](CC(C)C)NC(=O)[C@H](C)NC1=O
notes: also called Cpd
IC50 [7]: 106 nM | IC50 [8]: 266 nM | IC50 [9]: 106 nM | IC50 [10]: 42.9 nM

B4: Compound 11, cyclic peptide A R G D L A K p P (peptide)
peptide: cyclo(ARGDLAK[dP]P)
SMILES: CC(C)C[C@@H]1NC(=O)[C@H](CC(=O)O)NC(=O)CNC(=O)[C@H](CCCNC(=N)N)NC(=O)[C@H](C)NC(=O)[C@@H]2CCCN2C(=O)[C@H]2CCCN2C(=O)[C@H](CCCCN)NC(=O)[C@H](C)NC1=O
notes: also called Cpd; 11
IC50 [7]: 302 nM | IC50 [8]: 831 nM | IC50 [9]: 302 nM | IC50 [10]: 49.3 nM

B5: Compound 10, cyclic peptide A R G D L A F p P (peptide)
peptide: cyclo(ARGDLAF[dP]P)
SMILES: CC(C)C[C@@H]1NC(=O)[C@H](CC(=O)O)NC(=O)CNC(=O)[C@H](CCCNC(=N)N)NC(=O)[C@H](C)NC(=O)[C@@H]2CCCN2C(=O)[C@H]2CCCN2C(=O)[C@H](Cc2ccccc2)NC(=O)[C@H](C)NC1=O
notes: also called Cpd; 10
IC50 [7]: 104 nM | IC50 [8]: 38.4 nM | IC50 [9]: 104 nM | IC50 [10]: 10.4 nM

B6: Compound 8, cyclic peptide A R G D L D L p P (peptide)
peptide: cyclo(ARGDLDL[dP]P)
SMILES: CC(C)C[C@@H]1NC(=O)[C@H](CC(=O)O)NC(=O)CNC(=O)[C@H](CCCNC(=N)N)NC(=O)[C@H](C)NC(=O)[C@@H]2CCCN2C(=O)[C@H]2CCCN2C(=O)[C@H](CC(C)C)NC(=O)[C@H](CC(=O)O)NC1=O
notes: Comparative compound (*)
IC50 [7]: 2.4 nM | Ratio [11]: 6.1 | IC50 [12]: 14.7 nM
